In patent US20130310442:
pKd: −log10 of the molar value.

Legend:
[1] = molecular target: biotinylated human D-SDF-1 (Homo sapiens) (UniProt P48061); test: pulldown; settings: single Kd stated after naming 193-C2-002 and 193-G2-012
[2] = molecular target: human SDF-1alpha (CXCL12) (Homo sapiens) (UniProt P48061); test: SPR; settings: L-RNA; 5'-40 kDa PEG; Biacore 2000, 37 C
human SDF-1alpha (CXCL12) (Homo sapiens), sequence (P48061 22-89): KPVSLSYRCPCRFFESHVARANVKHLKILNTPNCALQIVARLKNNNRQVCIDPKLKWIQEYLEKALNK

biotinylated human D-SDF-1 (Homo sapiens), sequence (P48061 22-92): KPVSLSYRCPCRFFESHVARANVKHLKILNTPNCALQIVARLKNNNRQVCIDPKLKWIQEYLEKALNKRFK

Work on “GCGUGGUGUGAUCUAGAUGUAGUGGCUGAUCCUAGUCAGGUACGC [193-C2-002 (D)]” yielded a pKd [1] of 9.52.
With “GCGUGGUGUGAUCUAGAUGUAUUGGCUGAUCCUAGUCAGGUACGC [NOX-A12 (193-G2-012-5'-PEG)]” the pKd [2] was 9.70.
